Target: GAL4-CREB fusion protein (Stratagene): CREB activation domain fused with the yeast GAL4 DNA binding domain (amino acids 1-147) (yeast) (UniProt P04386)
Assay: cell-based or functional assay

**Q.** Which Fold Induction (luciferase from the genome-integrated pFR-Luc/UAS-Luc reporter in HLR cells, GAL4-CREB co-transfected with CREAP1, normalized to pCMV-BD vector) does the source give for “human CREAP1 (CRE activating protein 1), full length (from UniProt Q6UUV9 1-634)” here?
**A.** 233 fold

**Q.** How did the Fold Induction (luciferase from the genome-integrated pFR-Luc/UAS-Luc reporter in HLR cells, GAL4-CREB co-transfected with CREAP2, normalized to pCMV-BD vector) turn out when “human CREAP2, full length (from UniProt Q53ET0 1-693)” was run?
**A.** 178 fold

**Q.** “human CREAP3, full length (from UniProt Q6UUV7 1-619)” was tested. Which Fold Induction (luciferase from the genome-integrated pFR-Luc/UAS-Luc reporter in HLR cells, GAL4-CREB co-transfected with CREAP3, normalized to pCMV-BD vector) did it give?
**A.** 448 fold
